Values joined by “and” are separate entries in the source; they are usually repeats but may differ in a detail not shown here. Identical values can stand only once.
B1: Fatty acid-binding protein, intestinal, P02693 (parent)
chain: MAFDGTWKVDRNENYEKFMEKMGINVVKRKLGAHDNLKLTITQEGNKFTVKESSNFRNIDVVFELGVDFAYSLADGTELTGTWTMEGNKLVGKFKRVDNGKELIAVREISGNELIQTYTYEGVEAKRIFKKE

Variants of: B1
Conditions: Rattus norvegicus; pH 7; 25 °C; Urea; Fluorescence; NaPO4 25 mM; NaCl 75 mM; structure 1IFB; whole UniProt chain shown

Variant | ddG of mutation (higher = less stable) [kcal/mol] | denaturant m value | denaturant midpoint (higher = more stable) | unfolding free energy
MAFDGTWKVDRNENYEKFMEKMGINVVKRKLGAHDNLKLTITQEGNKFTVKESSNFRNIDVVFELGVDFAYSLADGTELTGTYTMEGNKLVGKFKRVDNGKELIAVREISGNELIQTYTYEGVEAKRIFKKE [W83Y] | -0.09 | 1.38 kcal/mol/M and 1.1 kcal/mol/M | 3.54 M and 3.6 M | 4.88 kcal/mol and 3.99 kcal/mol
MAFDGTWKVDRNENYEKFMEKMGINVVKRKLGAHDNLKLTITQEGNKFTVKESSNFRNIDVVFELGVDFAYSLADGTELTGTWTMEGNKLVGKAKRVDNGKELIAVREISGNELIQTYTYEGVEAKRIFKKE [F94A] | 2.42 | 1.3 kcal/mol/M and 0.77 kcal/mol/M | 1.83 M and 2.53 M | 2.37 kcal/mol and 1.94 kcal/mol
MAFDGTYKVDRNENYEKFMEKMGINVVKRKLGAHDNLKLTITQEGNKFTVKESSNFRNIDVVFELGVDFAYSLADGTELTGTWTMEGNKLVGKFKRVDNGKELIAVREISGNELIQTYTYEGVEAKRIFKKE [W7Y] | 0.93 | 1.09 kcal/mol/M and 0.77 kcal/mol/M | 3.52 M and 3.8 M | 3.86 kcal/mol and 2.93 kcal/mol
MAFDGTWKVDRNENYEKFMEKMGINVVKRKLGAHDNLKLTITQEGNKFTVKESSNFRNIDVVFELGVDAAYSLADGTELTGTWTMEGNKLVGKFKRVDNGKELIAVREISGNELIQTYTYEGVEAKRIFKKE [F69A] | -1.38 | 1.76 kcal/mol/M | 3.52 M | 6.17 kcal/mol

From FireProtDB (doi:10.1021/bi052091o)
